Experiments:
[1] = system: soybean (A3555), non-transgenic or expressing H_N10 (SEQ ID NO:4); experiment: R0 soybean sprayed with flumioxazin; assay type: in vivo; conditions: 210 g/ha, V3, 8 days
Protocol: In soybean, excised embryos (A3555) were transformed with the transformation constructs 1 and 11 using A. tumefaciens and standard methods known in the art. […] Regenerated R0 transgenic plantlets were grown in the greenhouse. […] The herbicide was sprayed at the V3 developmental stage with three fully developed trifoliate leaves and injury ratings were assessed 8 days after treatment. The percentage of plants that were deemed highly tolerant (15% or less injury) was noted.

[2] = system: C=Cc1c2[nH]c(c1C)Cc1[nH]c(c(CCC(=O)O)c1C)Cc1[nH]c(c(C)c1CCC(=O)O)Cc1[nH]c(c(C)c1C=C)C2; experiment: purified protein, by the assay type; conditions: other: apparent Km for protoporphyrinogen, pH 7.4, 37° C.
[3] = system: Soybean (Glycine max) protoporphyrinogen oxidase (PPO), wild type; experiment: PPO enzyme assay (plastid extract); assay type: biochemical; conditions: apparent Km for protoporphyrinogen; pH 7.4, 30° C.
[4] = system: Maize (Zea mays) protoporphyrinogen oxidase (PPO), wild type; experiment: PPO enzyme assay (plastid extract); assay type: biochemical; conditions: apparent Km for protoporphyrinogen; pH 7.4, 30° C.
[5] = system: H_N110 (SEQ ID NO: 10), microbial HemG protoporphyrinogen oxidase; experiment: PPO enzyme assay (bacterial extract); conditions: apparent Km for protoporphyrinogen; pH 7.4, 37° C.
[6] = system: Waterhemp (Amaranthus tuberculata) protoporphyrinogen oxidase (PPO), wild type; experiment: PPO enzyme assay (plastid extract); assay type: biochemical; conditions: apparent Km for protoporphyrinogen; pH 7.4, 30° C.
[7] = system: H_N60 (SEQ ID NO: 3), microbial HemG protoporphyrinogen oxidase; experiment: PPO enzyme assay (bacterial extract); conditions: apparent Km for protoporphyrinogen; pH 7.4, 37° C.
transgenic maize plants = experiment: R0 transgenic maize 40 g/ha S-3100 spray test; assay type: in vivo; conditions: for Average Injury / Highly Tolerant (number of plants with less than 10% injury): 40 grams/ha S-3100 at V5, 7 days after treatment, R0 plants; for injury rates when expressed in transgenic plants (crop tolerance to a PPO herbicide): R0 transgenic maize data
Description: H_N60 (SEQ ID NO:3). […] These five constructs had the same promoter plus leader plus intron combination, with two different targeting peptide (TP) sequences, and the same 3′UTR sequence. Leaf samples were taken from the R0 plants and analyzed by PCR to determine the transgene copy number. Single copy plants for up to 12 unique events per construct were transplanted to pots, selfed and outcrossed to generate R1 and F1 seed, respectively, for future testing. Multi-copy plants and extra single copy plants were sprayed with 40 grams/ha 5-3100 at approximately the V5 growth stage and injury ratings were taken 7 days after treatment. The average percent (%) injury for all plants expressing each PPO enzyme and the number of plants that were deemed highly tolerant (less than 10% injury) was noted, where each plant is a unique single or multi-copy transformant.

R0 soybean plants = experiment: R0 transgenic soybean herbicide tolerance at eleven weeks; assay type: in vivo; conditions: R0 plants sprayed with S-3100 at eleven weeks, rated seven days after treatment
Protocol: The plantlets in the non-sprayed containers corresponding to constructs having a score of 2 were transplanted at approximately 7 weeks post transformation and grown as R0 plants using standard methods known in the art. Plantlets corresponding to non-tolerant scores of 0 and 1 were also grown to serve as negative controls. The R0 plants were grown in a greenhouse under long-day nursery conditions (18 hr light at 80° F. then 6 hr dark at 74° F.) for approximately four weeks. At eleven weeks, the R0 plants were sprayed with two passes of the same herbicide solution (0.3 g of 5-3100) described above. Herbicide injury ratings were collected seven days after treatment.
The results of the herbicide tolerance application at eleven weeks to the R0 plants confirmed the low percent injury rating scores observed in the high-throughput screen at five weeks. Any injury rating of 30% or above was equivalent to non-transgenic soybean injury ratings. A few of the constructs stood out as providing very good tolerance to the herbicide application. […] Data are provided in Table 10, where n.d. indicates the analysis was not conducted.

soybean plantlets = experiment: High-throughput soybean screening for herbicide tolerance (plantlets); assay type: in vivo, soybean (A3555); design: key: 0 for poor tolerance, high damage, low green coloration; 1 for some tolerance, average damage, moderate green coloration; 2 for good tolerance, low damage, high green coloration; conditions: S-3100 spray five weeks post-transformation, scored day four
Description: A high-throughput plant transformation and screening method was used to evaluate large numbers of constructs in transgenic plants for herbicide tolerance in early transformation plantlet tissue. This allowed for faster and higher volume screening of construct configurations and PPO enzymes.
This permitted the side-by-side comparison of seven different HemG PPO enzymes with thirty-seven different targeting peptides using the same promoter and 3′UTR elements for gene expression. These plant transformation constructs were used to transform soybean excised embryos (germplasm A3555) using A. tumefaciens and standard methods known in the art. Four hundred explants were inoculated for each construct resulting in twelve containers per construct. A sterile PPO herbicide solution was used for herbicide tolerance testing. The herbicide solution consisted of 0.3 g of S-3100 in crop oil concentrate (5.0 mL) and 495 mL of deionized water. This was filtered through a 0.45 micron Nalgene® Rapid-Flow™ Tissue Culture Filter Unit and Surfactant-Free Cellulose Acetate membrane filter unit (VWR, Radnor, PA, USA). The resulting sterile solution was shaken before application.
At five weeks post-transformation, four of the twelve plant containers per construct were sprayed with two passes of the sterile PPO herbicide solution. The treated plantlets were then enclosed in the container and received at least 15 hours of light exposure post spray each day for four days. At the end of day four post application of S-3100, the treated plantlets were photographed and scored on a visual scale of green coloration (green coloration was representative of healthy photosynthetic plant tissue as compared to photo-bleached tissue) versus damage. The scoring values were 0 for poor tolerance, high damage, low green coloration; 1 for some tolerance, average damage, moderate green coloration; and 2 for good tolerance, low damage, high green coloration. The scoring for each construct is presented in Table 9, where n.d. indicates the analysis was not conducted.

[8] = H_N10 (SEQ ID NO:4), construct 11

C#CCN1C(=O)COc2cc(F)c(N3C(=O)C4=C(CCCC4)C3=O)cc21 [flumioxazin]
average injury rating [1, 8]: 22%
highly tolerant plants (15% or less injury) [1, 8]: 9%
average injury rating ([1]; non-transgenic): 30%
highly tolerant plants (15% or less injury) ([1]; non-transgenic): no highly tolerant plants

H_N50 (SEQ ID NO: 7), microbial HemG protoporphyrinogen oxidase (Shimwellia blattae DSM 4481 = NBRC 105725)
Km [2]: 1.0 µM

H_N10 (SEQ ID NO: 4), E. coli wild-type HemG protoporphyrinogen oxidase (Escherichia coli CFT073)
Km [2]: 0.7 µM

C=Cc1c2[nH]c(c1C)Cc1[nH]c(c(CCC(=O)O)c1C)Cc1[nH]c(c(C)c1CCC(=O)O)Cc1[nH]c(c(C)c1C=C)C2 [protoporphyrinogen, protoporphyrinogen IX]
Km [3]: 1.8 µM
Km [4]: 2 µM
Km [5]: 0.3 µM
Km [6]: 0.7 µM
Km [7]: 1.1 µM

H_N30 (SEQ ID NO: 5), microbial HemG protoporphyrinogen oxidase (Winslowiella toletana)
Km [2]: 1.0 µM

H_N20 (SEQ ID NO: 2), microbial HemG protoporphyrinogen oxidase (Pantoea ananatis LMG 5342)
Km [2]: 0.8 µM

B1: H_N110: microbial HemG protoporphyrinogen oxidase, SEQ ID NO:10 (protein, listed as Enterobacter mori)
chain: MKILILFSTRDGQTREIAASLASELKEQAFDVDVVNLHRAENIAWEEYDGVVIGASIRYGHFHSTLNSFVKKHQQALKKLPGAFYSVNLVARKPEKRTPQTNSYTRKFLLDSPWQPDLSAVFAGALRYPRYNWYDRIMIRLIMKITGGETDTRKEVVYTDWQQVTHFAHEIVQLVRK
Average Injury (transgenic maize plants): 43.0%
Highly Tolerant (number of plants with less than 10% injury) (transgenic maize plants): did not produce any highly tolerant plants
injury rates when expressed in transgenic plants (crop tolerance to a PPO herbicide) (transgenic maize plants): reduced injury rates

B2: H_N60: microbial HemG protoporphyrinogen oxidase, SEQ ID NO:3 (protein, listed as Pantoea stewardii)
chain: MKALILYSTRDGQTRKIASSIADVIRQQQQCDVLNIKDASLPDWAQYDRVLIGASIRYGHFQPVVDKFVKQHLHELQQRTSGFFSVNLTARKPEKRSPETNAYTQKFLAHSPWQPDCCAVFAGALYYPRYRWFDRVMIQLIMRMTGGETDSTKEVEYTDWQQVSTFANDFAQLPGKS
Average Injury (transgenic maize plants): 55.8%
Highly Tolerant (number of plants with less than 10% injury) (transgenic maize plants): 19
injury rates when expressed in transgenic plants (crop tolerance to a PPO herbicide) (transgenic maize plants): reduced injury rates

B3: H_N40: microbial HemG protoporphyrinogen oxidase, SEQ ID NO:6 (SEQ ID NO:15 lacking start methionine) (protein, listed as Pectobacterium carotovorum)
chain: MKALIVFSSRDGQTRAIASYIANTLKGTLECDVVNVLNANDIDLSQYDRVAIGASIRYGRFHPAVNQFIRKHLTSLQQLPSAFFSVNLTARKPEKRTIQTNAYTRKFLLNSPWQPDLCCVFAGALRYPRYRWFDRVMIQLIMRITGGETDSTKEIEYTDWQQVARFAQDFAQLAAKNPA
Average Injury (transgenic maize plants): 47.0%
Highly Tolerant (number of plants with less than 10% injury) (transgenic maize plants): 53
injury rates when expressed in transgenic plants (crop tolerance to a PPO herbicide) (transgenic maize plants): reduced injury rates
percent injury score (R0 soybean plants; TP1): 5%
percent injury score (R0 soybean plants; TP13): 15%
percent injury score (R0 soybean plants; TP14): 35%
percent injury score (R0 soybean plants; TP15): 30%
percent injury score (R0 soybean plants; TP21): 35%
percent injury score (R0 soybean plants; TP25): 15%
coloration score (soybean plantlets; TP9): 0
coloration score (soybean plantlets; TP11): 1
coloration score (soybean plantlets; TP12): 1
coloration score (soybean plantlets; TP13): 1
coloration score (soybean plantlets; TP14): 2
coloration score (soybean plantlets; TP15): 2
coloration score (soybean plantlets; TP17): 1
coloration score (soybean plantlets; TP18): 1
coloration score (soybean plantlets; TP19): 1
coloration score (soybean plantlets; TP21): 2
coloration score (soybean plantlets; TP23): 1
coloration score (soybean plantlets; TP24): 0
coloration score (soybean plantlets; TP25): 2
coloration score (soybean plantlets; TP26): 1
coloration score (soybean plantlets; TP27): 1
coloration score (soybean plantlets; TP28): 1
coloration score (soybean plantlets; TP29): 1
coloration score (soybean plantlets; TP30): 1
coloration score (soybean plantlets; TP31): 1
coloration score (soybean plantlets; TP32): 1
coloration score (soybean plantlets; TP33): 0
